This passage reports Kd results from article PMC3101248.

For orientation: Kd means the constant that tells how readily two partners part at equilibrium. Lower therefore signals a tighter complex.

In this experiment the target is mouse VPS29 (isotopically labelled NMR sample) (mouse). Put plainly: NMR titration; SNX1 titrated into 0.1 mM 15N-labelled VPS29, soFast 15N HMQC, 298 K, 600 MHz; 10 mM HEPES (pH 7.5), 100 mM NaCl, DTT.

In the case of “human SNX1 (recombinant, for NMR titrations) (from UniProt Q13596 1-522) (natural protein)”, the Kd is greater than 150 µM.
